Measured values as given in IntAct's records for PubMed 23737971.

B1: Ras-related protein Rab-6A (Homo sapiens), P20340-1 (parent)
chain: MSTGGDFGNPLRKFKLVFLGEQSVGKTSLITRFMYDSFDNTYQATIGIDFLSKTMYLEDRTVRLQLWDTAGQERFRSLIPSYIRDSTVAVVVYDITNVNSFQQTTKWIDDVRTERGSDVIIMLVGNKTDLADKRQVSIEEGERKAKELNVMFIETSAKAGYNVKQLFRRVAAALPGMESTQDRSREDMIDIKLEKPQEQPVSEGGCSC
partner: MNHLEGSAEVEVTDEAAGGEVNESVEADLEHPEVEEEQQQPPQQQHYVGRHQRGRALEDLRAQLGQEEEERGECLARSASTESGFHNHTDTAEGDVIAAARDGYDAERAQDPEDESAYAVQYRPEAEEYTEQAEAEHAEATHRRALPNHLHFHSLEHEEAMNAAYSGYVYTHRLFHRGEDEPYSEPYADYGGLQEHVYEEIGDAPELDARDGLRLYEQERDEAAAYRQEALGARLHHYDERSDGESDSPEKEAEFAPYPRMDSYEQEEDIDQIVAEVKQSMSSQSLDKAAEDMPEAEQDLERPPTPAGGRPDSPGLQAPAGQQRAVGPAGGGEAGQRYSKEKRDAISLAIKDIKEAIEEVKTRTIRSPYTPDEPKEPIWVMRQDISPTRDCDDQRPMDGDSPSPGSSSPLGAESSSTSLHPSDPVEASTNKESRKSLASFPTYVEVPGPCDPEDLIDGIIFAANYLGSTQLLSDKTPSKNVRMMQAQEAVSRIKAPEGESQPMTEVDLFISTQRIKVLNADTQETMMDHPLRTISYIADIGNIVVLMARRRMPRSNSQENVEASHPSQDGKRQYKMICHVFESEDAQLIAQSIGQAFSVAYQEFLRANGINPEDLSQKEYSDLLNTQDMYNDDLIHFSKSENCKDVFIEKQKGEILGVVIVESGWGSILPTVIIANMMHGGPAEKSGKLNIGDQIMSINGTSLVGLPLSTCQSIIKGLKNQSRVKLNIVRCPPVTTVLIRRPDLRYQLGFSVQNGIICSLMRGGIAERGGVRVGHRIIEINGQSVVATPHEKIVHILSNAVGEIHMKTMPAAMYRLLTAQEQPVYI
B2: Ras-related protein Rab-6A (Homo sapiens), P20340-1 (parent)
chain: B1 chain
partner: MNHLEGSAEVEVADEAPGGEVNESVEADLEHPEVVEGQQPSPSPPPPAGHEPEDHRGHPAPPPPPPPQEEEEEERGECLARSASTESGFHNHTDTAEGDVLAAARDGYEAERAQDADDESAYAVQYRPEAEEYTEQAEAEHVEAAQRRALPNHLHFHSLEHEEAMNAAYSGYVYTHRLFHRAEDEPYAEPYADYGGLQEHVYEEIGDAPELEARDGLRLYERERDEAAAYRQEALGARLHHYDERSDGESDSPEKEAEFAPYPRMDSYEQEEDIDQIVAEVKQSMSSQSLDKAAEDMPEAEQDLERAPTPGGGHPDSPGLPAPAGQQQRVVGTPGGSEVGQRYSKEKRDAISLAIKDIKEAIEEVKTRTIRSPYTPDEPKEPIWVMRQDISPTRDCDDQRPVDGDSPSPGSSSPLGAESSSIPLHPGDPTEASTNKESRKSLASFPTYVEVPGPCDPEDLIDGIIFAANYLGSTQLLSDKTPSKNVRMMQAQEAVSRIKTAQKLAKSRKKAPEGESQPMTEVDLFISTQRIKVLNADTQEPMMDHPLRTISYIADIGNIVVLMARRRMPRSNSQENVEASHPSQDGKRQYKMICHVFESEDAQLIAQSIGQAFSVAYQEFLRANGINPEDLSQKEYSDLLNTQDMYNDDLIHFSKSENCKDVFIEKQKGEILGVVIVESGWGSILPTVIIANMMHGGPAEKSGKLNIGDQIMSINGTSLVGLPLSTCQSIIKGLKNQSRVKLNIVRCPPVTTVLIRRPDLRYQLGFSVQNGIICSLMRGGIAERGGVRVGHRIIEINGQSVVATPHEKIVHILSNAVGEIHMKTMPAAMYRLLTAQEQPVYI
B3: Ras-related protein Rab-6B (Homo sapiens), Q9NRW1 (parent)
chain: MSAGGDFGNPLRKFKLVFLGEQSVGKTSLITRFMYDSFDNTYQATIGIDFLSKTMYLEDRTVRLQLWDTAGQERFRSLIPSYIRDSTVAVVVYDITNLNSFQQTSKWIDDVRTERGSDVIIMLVGNKTDLADKRQITIEEGEQRAKELSVMFIETSAKTGYNVKQLFRRVASALPGMENVQEKSKEGMIDIKLDKPQEPPASEGGCSC
partner: B1 partner

Variants of: B1
Settings: with APBA1, Q02410-2
For T27N, the “effect of a mutation on the interaction” value was “disrupting interaction”.

Variants of: B2
Settings: with apba1_mouse Apba1, B2RUJ5
T27N was tested, and the “effect of a mutation on the interaction” value was “disrupting interaction”.

Variants of: B3
Settings: with APBA1, Q02410-2
In the case of T27N, the “effect of a mutation on the interaction” value is reported as “disrupting interaction”.
